Measurements taken from US20260116991A1 (HAINAN SIMCERE ZAIMING PHARMACEUTICAL, published 2026).
Numbering of substitutions follows the chain as printed.

B1: F1.136.7 human-murine chimeric antibody (antibody, human IgG1, kappa, V domains shown)
VH: EVQLQQSGPVMVKPGPSVKISCQTSGFTFTDYYIHWVKQSHGKSLEWIGLVFPYDGGTNYNQKFKDKATLTLDTSSSTAYMELNSLTSEDSAVYYCARAGGFSYALNYWGQGTSVTVSS
VL: DIQMTQSPSSLSASLGGKVTITCKASQDINNYIAWYQHKPGKGPRLLIHFTSTLQPGIPSRFSGSGSGRDYSFSISNLEPEDIATYYCLQYDNLLLTFGAGTKLELKR
B2: F1.145.22 human-murine chimeric antibody (antibody, human IgG1, kappa, V domains shown)
VH: QVQLQQSGTDLARPGASVKLSCKASGYTFTSFGISWVKQRTGQGLEWIGEIYPRSGSPYYNEKFTGKATLTADKSSSTAYMELRSLTSEDSAVYFCAKDFGSSYVFDYWGQGTALTVSS
VL: DIQMTQSPASLSASVGETVTITCRASENIYSYLTWYQQKQGKSPQLLVYNAKTLAEGVPSRFSGSGSGTQFSLKINSLQPEDFGTYYCQHHYGTPPTFGTGTKLDLKR
B3: F1.3.9 human-murine chimeric antibody (antibody, human IgG1, kappa, V domains shown)
VH: QVQLQQPGTELVKPGASVKLSCKASGYTFTSYWIHWVKQRPGQGLEWIGNINPPNAGTNYNEKFKSKATLTVDKSSSTAYMQLSSLTSEDSAVYYCARGRWLLHDYWGQGTTLTVSS
VL: DIQMTQSPASLSISVGETVTITCRASENIYSNLAWYQQKQGKSPQLLVYGTKNLAEGVPSRFSGSGSGTQYSLKINSLQSEDFGNYYCQHFWGTPYTFGGGTKLEILR
B4: F1.9.19 human-murine chimeric antibody (antibody, human IgG1, kappa, V domains shown)
VH: DVQLQESGPGLVKPSQSLSLTCSVTGYSITSGYYWNWIRQFPGNRLEWMAYISYDGINNYNPSLKNRISIARDTSTNQFFLKLNSVTSEDTATYYCATTTEVALFDHWGQGTTLTVSS
VL: DVLLTQTPLSLPVSLGDQASISCRSSQNIVHGNGNTYLEWFLQKPGQSPKLLIYKVSNRFSGVPDRFSGSGSGTDFTLKISRVEAEDLGLYYCFQASHVPWTFGGGTKLEIKR
B5: F1.62.9 human-murine chimeric antibody (antibody, human IgG1, kappa, V domains shown)
VH: QVQLQQSDAELVKPGASVKISCKVSGYIFTDHTIHWMKQRPEQGLEWIGYIYPRDGSIKYNENFKGKATLTADKSSSATYMQLNSLTSEDSAVYFCARPIYYDYAYYFDYWGQGTTLTVSS
VL: DVVMTQSPLSLPVSLGDQASISCRSRQSLVHSNGNTYLHWYLQKPGQSPKVLIYKVSNRFSGVPDRFSGSGSGTDFTLKISRVEAEDLGVYFCSQSTHVPYTFGGGTKLEIKR
B6: F1.153.1 human-murine chimeric antibody (antibody, human IgG1, kappa, V domains shown)
VH: QIQLVQSGPELKKPGETVKISCKASGYTFTTAGMQWVQKMPGKGFKWIGWINTHSGEPQYAEDFKGRFAFSLETSASTAYLQISNLKNEDTATYFCARSFYYHGSSFFYFDYWGQGTTLTVSS
VL: DIVMTQSQKFMSTTVGDRVSITCKASQNVGTAVAWYQQKPGQSPKLLIYSASNRYTGVPDRFTGSGSGADFTLTISNMQSEDLADYFCQQYSRYPLTFGAGTKLELKR
B7: F2.55.11 human-murine chimeric antibody (antibody, human IgG1, kappa, V domains shown)
VH: EVKLVESGGGLVKPGGSLKLSCAASGLTFSTCTMSWVRQTPAKRLEWVATISSGGGNTYYPDSVKGRFTISRDNARNTLYLQMSSLRSEDTAMYYCVRLYYDGSPYAMDYWGQGTSVTVSS
VL: DIQMTQTTSSLSASLGDRVTISCRASQDISNHLNWYQQKPDGTVKLLIYYTSRLHSGVPSRFSGSGSGTDYSLTISNLEQEDIATYFCQQDSKPPPTFGSGTKLEIKR
B8: F2.154.1 human-murine chimeric antibody (antibody, human IgG1, kappa, V domains shown)
VH: QVQLQQSGAELVRPGASVKLSCKASGYRFTDYEMHWVKQTPVHGLEWIGTIDPETGNTAYTQKFMDKATLTADKSSSTAYMELRSLTSEDSAVYYCTRGYSFTYWGQGTLATVSA
VL: B4 VL with L4M, G32S, E39Q, F41Y, Y54F, L90V, A96G, W101F, G105T
B9: F2.169.2 human-murine chimeric antibody (antibody, human IgG1, kappa, V domains shown)
VH: EVQLVETGGGLVQPKGSLKLSCAASGFSFNTNAMNWVRQAPGKGLEWVARIRSKSNNYATYYADSVKDRFTISRDDSQSMLYLQMNNLKTEDTAMYYCVRDGYYVLFAYWGQGTLVTVSA
VL: B4 VL with L4M, S25F, N28S, H31N, G32S, L90V, A96G, W101F, G105T
B10: F2.23.8 human-murine chimeric antibody (antibody, human IgG1, kappa, V domains shown)
VH: B8 VH with R28T, I48F, T50A, N57G, T61N, M65R, D66A, G99F, T103A, A111V
VL: B5 VL with S7T, R26S, H39Q, V51L, S81T, G105S
B11: F2.39.2 human-murine chimeric antibody (antibody, human IgG1, kappa, V domains shown)
VH: QVQLQQSGAELVRPGASVKVSCKASGYTFTDYEMHWMKQTPVHGLEWIGANEPETGRSAYDQKFKGKATLTADKSSSTAYMELRSLTSEDSAVYYCTRFYSFAYWGQGTLVTVSA
VL: B5 VL with S7T, R26S, S28G, S32N, V51L, S96N, Y101P

Molecular target: T1, murine GPC3-his protein (Sino Biological, Cat. No. 50989-M08B) (murine, UniProt Q8CFZ4 25-558)
T1 construct: Bought protein; also called murine GPC3 protein
T1 sequence (Q8CFZ4 25-558 limits assumed): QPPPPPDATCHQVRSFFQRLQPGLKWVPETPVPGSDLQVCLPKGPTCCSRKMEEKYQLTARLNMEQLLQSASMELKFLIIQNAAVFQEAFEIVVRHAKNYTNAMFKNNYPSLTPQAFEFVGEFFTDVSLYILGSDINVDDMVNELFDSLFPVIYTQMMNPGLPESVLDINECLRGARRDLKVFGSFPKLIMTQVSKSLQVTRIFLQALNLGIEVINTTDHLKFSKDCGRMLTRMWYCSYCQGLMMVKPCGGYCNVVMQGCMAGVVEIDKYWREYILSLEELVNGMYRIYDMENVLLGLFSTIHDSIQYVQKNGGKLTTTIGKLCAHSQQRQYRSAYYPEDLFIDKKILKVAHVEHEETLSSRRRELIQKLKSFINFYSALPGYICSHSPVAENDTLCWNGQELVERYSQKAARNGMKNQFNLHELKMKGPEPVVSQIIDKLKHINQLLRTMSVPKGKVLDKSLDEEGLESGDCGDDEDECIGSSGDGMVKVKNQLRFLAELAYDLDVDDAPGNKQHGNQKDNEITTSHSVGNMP
Experiment: ELISA, coated murine GPC3-His;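 note: antigen coated on plates at 1 µg/mL, test antibody bound for 2 h at 37 °C, detected with HRP-conjugated secondary antibody and TMB substrate after acid stop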
Description: The specific method is described as follows: The antigen protein was diluted with PBS to a final concentration of 1 μg/mL, and the diluent was added to a 96-well ELISA plate at 50 μL/well. The plate was sealed with a plastic film and incubated at 4° C. overnight, washed twice with PBS the next day, and a blocking solution [PBS+2% (w/w) BSA] was added for blocking at room temperature for 2 h. […] After incubation at 37° C. for 2 h, the plate was washed 3 times with PBS. A horseradish peroxidase (HRP)-labeled secondary antibody (purchased from Merck, Cat. No. AP113P) was added for incubation at 37° C. for 1 h, and the plate was washed 5 times with PBS. A TMB substrate was added at 50 μL/well for incubation at room temperature for 10 min, then a stop solution (1.0M HCl) was added at 50 μL/well. An ELISA plate reader (Multimode Plate Reader, EnSight, purchased from Perkin Elmer) was used to read OD_{450 nm} values, with results as shown in Table 4 to Table 6, FIG. 1A, FIG. 1B, and FIG. 1C.

Binder	OD450 at 0.0001 nM antibody [OD450 nm]	OD450 at 0.001 nM antibody [OD450 nm]	OD450 at 0.01 nM antibody [OD450 nm]	OD450 at 0.1 nM antibody [OD450 nm]	OD450 at 1 nM antibody [OD450 nm]	OD450 at 10 nM antibody [OD450 nm]	OD450 at 100 nM antibody [OD450 nm]
B1	0.05	0.05	0.06	0.22	0.17	0.91	0.17
B2	0.05	0.06	0.08	0.75	0.77	1.62	1.32
B3	0.05	0.04	0.04	0.05	0.18	0.18	0.37
B4	0.05	0.04	0.05	0.05	0.05	0.05	0.07
B5	0.04	0.04	0.05	0.04	0.04	0.06	0.28
B6	0.04	0.08	0.04	0.04	0.05	0.08	0.09
B7	0.05	0.05	0.05	0.05	0.05	0.07	0.16
B8	0.05	0.05	0.05	0.05	0.05	0.05	0.06
B9	0.05	0.09	0.38	1.68	2.49	2.72	2.63
B10	0.05	0.06	0.07	0.04	0.06	0.05	0.06
B11	0.05	0.06	0.07	0.05	0.05	0.05	0.06
